# Measured values from patent US20090149389A1.
# Where no end group is shown, it is not given here. [ ]: non-standard residue; d: D form.
# Experiments:
# Experiment in all cases: cell-based or functional assay
# [1] = molecular target: PKG1α (h) (human (h)), Q13976
# [2] = molecular target: PKC β 1 (h) (human (h)), P05771
# [3] = molecular target: MAPKAP kinase II (MK2) (UniProt P49137)
# Chain of MAPKAP kinase II (MK2) (P49137 whole entry): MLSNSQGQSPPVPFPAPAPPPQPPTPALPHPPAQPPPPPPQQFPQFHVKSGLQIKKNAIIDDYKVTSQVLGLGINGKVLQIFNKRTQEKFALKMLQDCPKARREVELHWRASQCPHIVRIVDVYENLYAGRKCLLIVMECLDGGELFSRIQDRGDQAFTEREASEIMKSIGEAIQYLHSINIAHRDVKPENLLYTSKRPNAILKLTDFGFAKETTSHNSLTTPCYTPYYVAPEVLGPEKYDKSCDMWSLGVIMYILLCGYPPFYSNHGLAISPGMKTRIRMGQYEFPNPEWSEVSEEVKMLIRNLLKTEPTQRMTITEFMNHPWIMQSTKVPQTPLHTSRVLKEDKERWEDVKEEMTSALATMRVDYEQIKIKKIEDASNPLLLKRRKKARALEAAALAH
# Chain of PKC β 1 (h) (human (h)), P05771 (P05771 whole entry): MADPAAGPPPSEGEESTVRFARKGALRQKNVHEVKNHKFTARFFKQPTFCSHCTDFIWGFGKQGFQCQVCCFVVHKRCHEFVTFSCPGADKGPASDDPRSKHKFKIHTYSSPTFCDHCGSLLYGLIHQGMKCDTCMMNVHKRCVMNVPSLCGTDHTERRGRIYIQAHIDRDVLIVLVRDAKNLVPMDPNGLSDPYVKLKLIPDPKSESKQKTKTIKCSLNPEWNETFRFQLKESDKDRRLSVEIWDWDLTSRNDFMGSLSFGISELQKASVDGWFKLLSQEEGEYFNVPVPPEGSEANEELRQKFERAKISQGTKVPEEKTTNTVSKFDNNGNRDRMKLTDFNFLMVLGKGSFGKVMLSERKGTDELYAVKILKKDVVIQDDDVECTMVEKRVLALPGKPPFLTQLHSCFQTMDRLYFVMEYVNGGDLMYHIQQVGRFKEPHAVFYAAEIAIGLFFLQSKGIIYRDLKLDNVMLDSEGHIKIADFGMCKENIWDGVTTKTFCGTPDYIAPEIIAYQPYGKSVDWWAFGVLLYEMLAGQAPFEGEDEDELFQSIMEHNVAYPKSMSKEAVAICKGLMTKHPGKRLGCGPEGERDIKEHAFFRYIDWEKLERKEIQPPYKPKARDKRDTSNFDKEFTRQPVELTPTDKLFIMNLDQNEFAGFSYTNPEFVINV
# Chain of PKG1α (h) (human (h)), Q13976 (Q13976 whole entry): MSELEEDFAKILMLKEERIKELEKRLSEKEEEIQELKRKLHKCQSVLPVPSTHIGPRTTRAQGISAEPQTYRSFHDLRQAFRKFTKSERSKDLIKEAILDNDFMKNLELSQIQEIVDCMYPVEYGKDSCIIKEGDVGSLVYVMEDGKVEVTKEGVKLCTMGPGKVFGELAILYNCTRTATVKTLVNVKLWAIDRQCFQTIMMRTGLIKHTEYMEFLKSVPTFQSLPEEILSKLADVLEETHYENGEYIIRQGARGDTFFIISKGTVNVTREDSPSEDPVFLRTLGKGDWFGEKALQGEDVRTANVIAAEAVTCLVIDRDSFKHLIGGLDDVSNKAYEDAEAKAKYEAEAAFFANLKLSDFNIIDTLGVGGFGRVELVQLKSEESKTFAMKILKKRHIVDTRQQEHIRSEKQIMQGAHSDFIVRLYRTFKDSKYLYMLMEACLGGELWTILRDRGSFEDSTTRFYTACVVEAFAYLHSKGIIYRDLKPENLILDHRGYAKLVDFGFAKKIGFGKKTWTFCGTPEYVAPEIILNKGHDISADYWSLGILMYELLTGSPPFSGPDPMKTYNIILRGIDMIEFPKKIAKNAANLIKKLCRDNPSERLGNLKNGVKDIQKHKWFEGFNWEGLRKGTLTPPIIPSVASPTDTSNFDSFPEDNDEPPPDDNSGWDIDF
binder,measurement,setting,value
FAKLAARLYRKALARQLGVAA,Profile-1 @ = 100 µm (kinase profiler assay),[1],12
same,Profile-1 @ = 100 µm (kinase profiler assay),[2],73
WLRRIKAWLRRIKALNRQLGVAA,Profile-1 @ = 30 µm (kinase profiler assay),[1],16
same,Profile-1 @ = 30 µm (kinase profiler assay),[2],8
"KALNRQLG[dV]AA (peptide, from a related filing) [KALNRQLGdVAA]",% of … [SEQ ID NO: 124] Reaction Velocity at an Inhibitor Concentration of 100 µM,[3],260%
"KAL[dN]RQLGVAA (peptide, from a related filing) [KALdNRQLGVAA]",% of … [SEQ ID NO: 124] Reaction Velocity at an Inhibitor Concentration of 100 µM,[3],95%
KAFAKLAARLYRKALARQLGVAA,Profile-1 @ = 100 µm (kinase profiler assay),[1],25
same,Profile-1 @ = 100 µm (kinase profiler assay),[2],23
"KALN[dR]QLGVAA (peptide, from a related filing) [KALNdRQLGVAA]",% of … [SEQ ID NO: 124] Reaction Velocity at an Inhibitor Concentration of 100 µM,[3],306%
"KA[dL]NRQLGVAA (peptide, from a related filing) [KAd…]",% of … [SEQ ID NO: 124] Reaction Velocity at an Inhibitor Concentration of 100 µM,[3],146%
